In patent publication US20040241165A1 (Takeda / Millennium, published 2004):
No end group written: not given here.

Tests used:
[1] = biological target: human-type OT7T022 (hOT7T022) G protein-coupled receptor protein (human) (UniProt Q9GZQ6); assay: binding inhibition: displacement of 125I-Tyr-hRFRP-3(8) from membrane fraction of human-type OT7T022-expressing CHO cells
[2] = biological target: human-type OT7T022 (hOT7T022) G protein-coupled receptor protein (human) (UniProt Q9GZQ6); assay: cell-based or functional assay
[3] = biological target: T1, human-type OT7T022 (hOT7T022) G protein-coupled receptor protein (human, UniProt Q9GZQ6 1-430); assay: cell-based or functional assay
T1 sequence (Q9GZQ6 whole entry): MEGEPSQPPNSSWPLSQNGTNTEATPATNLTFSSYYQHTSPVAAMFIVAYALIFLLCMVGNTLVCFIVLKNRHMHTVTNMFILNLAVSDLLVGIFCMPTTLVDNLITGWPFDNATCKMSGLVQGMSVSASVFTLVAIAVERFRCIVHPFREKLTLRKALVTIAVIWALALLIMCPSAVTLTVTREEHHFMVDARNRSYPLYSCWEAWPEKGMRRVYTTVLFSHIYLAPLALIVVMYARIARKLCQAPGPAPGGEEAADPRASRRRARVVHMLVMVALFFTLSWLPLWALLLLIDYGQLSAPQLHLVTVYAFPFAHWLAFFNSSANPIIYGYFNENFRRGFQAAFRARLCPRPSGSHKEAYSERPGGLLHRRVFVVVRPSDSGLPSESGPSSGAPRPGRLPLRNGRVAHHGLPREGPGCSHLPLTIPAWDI

[4] = biological target: T1, human-type OT7T022 (hOT7T022) G …; assay: binding inhibition: displacement of 125I-Tyr-hRFRP-3(8) from membrane fraction of human-type OT7T022-expressing CHO cells
Experimental: An assay buffer [50 mM Tris-HCl, pH 7.5, 5 mM EDTA, 0.1% bovine serum albumin (Sigma), 0.5 mM PMSF (Wako Purechemical Industries), 20 μg/ml leupeptin (Peptide Institute, Inc.), 0.1 μg/ml pepstatin A (Peptide Institute, Inc.), 4 μg/ml E64 (Peptide Institute, Inc.) and 10 mM MgCl₂] was prepared. With this buffer, the membrane fraction from human-type OT7T022-expressing CHO cells was diluted to give a concentration of 1 μg/25 μl. […] Sample solutions prepared, NSB and the assay buffer were dispensed into polypropylene 96-well plates in quadruplicate as total 50 μl/well. […] Twenty-five microliter of the membrane fraction solution from human-type OT7T022-expressing CHO cells was added thereto, agitated with a plate mixer and incubated at room temperature for 1.5 hr. Using a cell harvester for 96-well plates, the contents of each well were adsorbed onto a filter unit (GF/C, treated with polyethylene imine) pre-moisturized with washing buffer (50 mM Tris-HCl, pH 7.5). After washing 5 times with the washing buffer, the adsorbate was dried thoroughly. The lower part of the filter unit was sealed. Then, 50 μl of liquid scintillator was added to each well and the upper part of the filter unit was sealed. Radioactivity was measured with a Top Count (Packard), and data were analyzed in triplicate.

[5] = biological target: T1, human-type OT7T022 (hOT7T022) G …; assay: cell-based or functional assay; remark: listed apart in the source
[6] = biological target: G protein-coupled receptor protein rOT7T022L (rat, UniProt Q9EP86 1-432); assay: cell-based or functional assay
G protein-coupled receptor protein rOT7T022L, sequence (Q9EP86 whole entry): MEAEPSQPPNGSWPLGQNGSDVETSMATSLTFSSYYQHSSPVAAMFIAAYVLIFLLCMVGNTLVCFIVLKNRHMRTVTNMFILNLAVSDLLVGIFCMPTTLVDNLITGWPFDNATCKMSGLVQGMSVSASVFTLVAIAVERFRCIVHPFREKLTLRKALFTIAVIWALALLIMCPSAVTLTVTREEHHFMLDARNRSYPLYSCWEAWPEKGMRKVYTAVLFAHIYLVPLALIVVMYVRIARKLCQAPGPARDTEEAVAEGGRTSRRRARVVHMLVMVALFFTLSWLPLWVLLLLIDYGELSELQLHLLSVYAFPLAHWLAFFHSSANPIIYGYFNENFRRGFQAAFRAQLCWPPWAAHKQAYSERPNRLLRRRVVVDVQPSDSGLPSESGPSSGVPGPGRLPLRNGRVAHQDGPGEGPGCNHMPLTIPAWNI

human-type OT7T022 (hOT7T022) G protein-coupled receptor protein (human), sequence (Q9GZQ6 whole entry): as the sequence (Q9GZQ6 whole entry) above

Row | Molecule | ED50, inhibition of intracellular cAMP increase by forskolin treatment [3] | IC50 [4] | cAMP production inhibition EC50 [5] | further results
1 | hRFRP-3 (28) (second row with this label, last row of Table 1) (peptide) |  |  |  | IC50 [1]: 1.6 nM; cAMP production inhibition EC50 [2]: 4.1 nM
2 | SVTFQELKDWGAKKDIKMSPAPANKVPHSAANLPLRF (ends and bridges not checked) [rRFRP-1-37] | 30 nM |  |  | 
3 | PQRF-NH2 [PQRF amide (Pro-Gln-Arg-Phe-NH2)] | ≥ 1000 nM |  |  | 
4 | SLNFEELKDWGPKNVIKMSTPAVNKMPHSFANLPLRF-NH2 [hRFRP-1-37] | 21 nM |  |  | 
5 | NLPQRF-NH2 [Asn-Leu-Pro-Gln-Arg-Phe-NH2: hRFRP-3(6)] |  | 2.6 nM | 37 nM | 
6 | SAGATANLPLRSGRNMEVSLVRRVPNLPQRF-NH2 (also called hRFRP-3 (31)) [human-type RFRP-3(31)] |  | 1.3 nM | 4.8 nM | 
7 | PNLPQRF-NH2 [Pro-Asn-Leu-Pro-Gln-Arg-Phe-NH2: hRFRP-3(7)] |  | 0.62 nM | 3.2 nM | 
8 | ATANLPLRSGRNMEVSLVRRVPNLPQRF-NH2 (also called hRFRP-3 (28)) [human-type RFRP-3(28)] |  | 1.1 nM | 5.1 nM | 
9 | MPHSFANLPLRF-NH2 [Met-Pro-His-Ser-Phe-Ala-Asn-Leu-Pro-Leu-Arg-Phe-NH2 (MPHSFANLPLRF amide)] | 4.5 nM |  |  | cAMP production inhibitory effect, IC50 [6]: 0.5 nM
